Assay results: patent US20240139329A1 (CALIFORNIA INSTITUTE OF TECHNOLOGY, published 2024)

B1: AAV9-X1.1 (other)
chain: MAADGYLPDWLEDNLSEGIREWWALKPGAPQPKANQQHQDNARGLVLPGYKYLGPGNGLDKGEPVNAADAAALEHDKAYDQQLKAGDNPYLKYNHADAEFQERLKEDTSFGGNLGRAVFQAKKRLLEPLGLVEEAAKTAPGKKRPVEQSPQEPDSSAGIGKSGAQPAKKRLNFGQTGDTESVPDPQPIGEPPAAPSGVGSLTMASGGGAPVADNNEGADGVGSSSGNWHCDSQWLGDRVITTSTRTWALPTYNNHLYKQISNSTSGGSSNDNAYFGYSTPWGYFDFNRFHCHFSPRDWQRLINNNWGFRPKRLNFKLFNIQVKEVTDNNGVKTIANNLTSTVQVFTDSDYQLPYVLGSAHEGCLPPFPADVFMIPQYGYLTLNDGSQAVGRSSFYCLEYFPSQMLRTGNNFQFSYEFENVPFHSSYAHSQSLDRLMNPLIDQYLYYLSRTIDGAATKNQTLKFSVAGPSNMAVQGRNYIPGPSYRQQRVSTTVTQNNNSEFAWPGASSWALNGRNSLMNPGPAMASHKEGEDRFFPLSGSLIFGKQGTGRDNVDADKVMITNEEEIKTTNPVATESYGQVATNHQSAQGNNTRSVAQAQTGWVQNQGILPGMVWQDRDVYLQGPIWAKIPHTDGNFHPSPLMGGFGMKHPPPQILIKNTPVPADPPTAFNKDKLNSFITQYSTGQVSVEIEWELQKENSKRWNPEIQYTSNYYKSNNVEFAVNTEGVYSEPRPIGTRYLTRNL
notes: also called AAV-X1.1; X1B10
B2: AAV.CAP-Mac (other)
chain: MAADGYLPDWLEDNLSEGIREWWALKPGAPQPKANQQHQDNARGLVLPGYKYLGPGNGLDKGEPVNAADAAALEHDKAYDQQLKAGDNPYLKYNHADAEFQERLKEDTSFGGNLGRAVFQAKKRLLEPLGLVEEAAKTAPGKKRPVEQSPQEPDSSAGIGKSGAQPAKKRLNFGQTGDTESVPDPQPIGEPPAAPSGVGSLTMASGGGAPVADNNEGADGVGSSSGNWHCDSQWLGDRVITTSTRTWALPTYNNHLYKQISNSTSGGSSNDNAYFGYSTPWGYFDFNRFHCHFSPRDWQRLINNNWGFRPKRLNFKLFNIQVKEVTDNNGVKTIANNLTSTVQVFTDSDYQLPYVLGSAHEGCLPPFPADVFMIPQYGYLTLNDGSQAVGRSSFYCLEYFPSQMLRTGNNFQFSYEFENVPFHSSYAHSQSLDRLMNPLIDQYLYYLSRTINGSGQNQQTLKFSVAGPSNMAVQGRNYIPGPSYRQQRVSTTVTQNNNSEFAWPGASSWALNGRNSLMNPGPAMASHKEGEDRFFPLSGSLIFGKQGTGRDNVDADKVMITNEEEIKTTNPVATESYGQVATNHQSAQLNTTKPIAQAQTGWVQNQGILPGMVWQDRDVYLQGPIWAKIPHTDGNFHPSPLMGGFGMKHPPPQILIKNTPVPADPPTAFNKDKLNSFITQYSTGQVSVEIEWELQKENSKRWNPEIQYTSNYYKSNNVEFAVNTEGVYSEPRPIGTRYLTRNL
notes: also called CAP-C1

What was measured:
[1] = biological target: T1, human pancreatic secretory granule membrane major glycoprotein GP2 (GP2), on cells (human, UniProt P55259 29-512); experiment: cell microarray screen hit (membrane)
T1 construct: also called glycoprotein 2; hGP2

[2] = biological target: T2, Mouse SCA1 (LY6A), on cells (mouse, UniProt P05533 27-112); experiment: cell microarray, individual capsids, anti-AAV9 detection
T2 construct: whole, on cells; also called mouse LY6A
T2 sequence: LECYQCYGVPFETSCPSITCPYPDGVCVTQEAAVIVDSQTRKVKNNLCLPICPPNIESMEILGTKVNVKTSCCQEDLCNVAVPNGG

[3] = biological target: T3, human LRP6 extracellular domain (AA 20-1368) tagged with Fc (human IgG1) (human, UniProt O75581 20-1368); experiment: validated interaction (cell culture potency assay and/or SPR)
T3 construct: also called human LRP6-Fc; complete human LRP6 extracellular domain; not shown: human IgG1 Fc
T3 sequence: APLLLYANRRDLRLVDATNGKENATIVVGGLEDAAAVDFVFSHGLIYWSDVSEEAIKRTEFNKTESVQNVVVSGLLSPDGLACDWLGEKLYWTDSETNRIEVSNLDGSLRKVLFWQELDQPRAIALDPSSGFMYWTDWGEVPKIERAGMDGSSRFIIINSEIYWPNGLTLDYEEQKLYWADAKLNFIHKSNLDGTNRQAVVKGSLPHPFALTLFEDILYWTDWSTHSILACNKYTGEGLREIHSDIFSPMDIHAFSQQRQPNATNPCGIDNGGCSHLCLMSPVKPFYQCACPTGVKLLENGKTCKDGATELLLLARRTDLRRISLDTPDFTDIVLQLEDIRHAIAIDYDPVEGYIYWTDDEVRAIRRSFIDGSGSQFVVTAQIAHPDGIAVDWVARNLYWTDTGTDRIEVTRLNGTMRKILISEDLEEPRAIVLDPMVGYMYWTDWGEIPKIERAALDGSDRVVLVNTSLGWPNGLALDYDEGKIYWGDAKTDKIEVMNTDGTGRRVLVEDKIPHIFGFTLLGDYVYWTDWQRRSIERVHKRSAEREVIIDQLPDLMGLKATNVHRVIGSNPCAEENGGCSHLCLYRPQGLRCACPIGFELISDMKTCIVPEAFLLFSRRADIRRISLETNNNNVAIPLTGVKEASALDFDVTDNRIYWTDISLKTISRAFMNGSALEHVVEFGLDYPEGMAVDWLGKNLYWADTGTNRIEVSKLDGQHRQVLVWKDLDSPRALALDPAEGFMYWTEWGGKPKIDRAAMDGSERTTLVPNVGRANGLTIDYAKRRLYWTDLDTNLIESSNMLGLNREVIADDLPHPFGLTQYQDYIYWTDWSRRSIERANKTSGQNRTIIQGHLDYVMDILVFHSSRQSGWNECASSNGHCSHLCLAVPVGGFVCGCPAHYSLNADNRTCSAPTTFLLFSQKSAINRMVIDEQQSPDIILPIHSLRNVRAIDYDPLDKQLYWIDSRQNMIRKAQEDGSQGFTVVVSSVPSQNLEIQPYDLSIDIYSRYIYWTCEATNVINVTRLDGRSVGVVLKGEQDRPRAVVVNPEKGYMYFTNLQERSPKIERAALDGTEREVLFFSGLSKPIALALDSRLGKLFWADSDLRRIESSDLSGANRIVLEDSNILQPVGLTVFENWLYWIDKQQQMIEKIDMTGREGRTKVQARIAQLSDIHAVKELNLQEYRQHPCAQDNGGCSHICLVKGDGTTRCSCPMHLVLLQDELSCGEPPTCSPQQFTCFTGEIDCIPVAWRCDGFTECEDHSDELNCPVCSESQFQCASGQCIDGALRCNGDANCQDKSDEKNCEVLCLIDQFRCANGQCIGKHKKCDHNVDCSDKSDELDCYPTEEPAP

[4] = biological target: T4, mouse LRP6-E3E4 (C-half, AA 629-1244) tagged with Fc (mouse IgG2a) (mouse, UniProt O88572 629-1244); experiment: SPR, target-Fc captured on protein A chip, AAV analyte (FIG. 14D)
T4 construct: not shown: mouse IgG2a Fc
T4 sequence: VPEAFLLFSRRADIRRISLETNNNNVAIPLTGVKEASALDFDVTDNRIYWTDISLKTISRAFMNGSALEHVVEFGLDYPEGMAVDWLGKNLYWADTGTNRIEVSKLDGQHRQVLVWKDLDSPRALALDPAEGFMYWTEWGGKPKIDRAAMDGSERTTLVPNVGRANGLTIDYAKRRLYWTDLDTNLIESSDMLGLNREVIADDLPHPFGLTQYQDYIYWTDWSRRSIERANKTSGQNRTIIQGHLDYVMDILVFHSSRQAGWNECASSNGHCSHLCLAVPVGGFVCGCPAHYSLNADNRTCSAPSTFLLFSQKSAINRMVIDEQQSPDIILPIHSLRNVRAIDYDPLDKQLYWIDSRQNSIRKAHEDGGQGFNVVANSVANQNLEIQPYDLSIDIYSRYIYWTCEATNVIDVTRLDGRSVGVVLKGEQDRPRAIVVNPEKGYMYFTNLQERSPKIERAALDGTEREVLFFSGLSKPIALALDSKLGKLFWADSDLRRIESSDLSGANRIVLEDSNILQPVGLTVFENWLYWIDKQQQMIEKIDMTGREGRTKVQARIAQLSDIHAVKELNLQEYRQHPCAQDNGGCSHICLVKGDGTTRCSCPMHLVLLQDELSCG

[5] = biological target: T5, mouse LRP6-E1E2 (N-half, AA 20-628) tagged with Fc (mouse IgG2a) (mouse, UniProt O88572 20-628); experiment: as above
T5 construct: not shown: mouse IgG2a Fc
T5 sequence: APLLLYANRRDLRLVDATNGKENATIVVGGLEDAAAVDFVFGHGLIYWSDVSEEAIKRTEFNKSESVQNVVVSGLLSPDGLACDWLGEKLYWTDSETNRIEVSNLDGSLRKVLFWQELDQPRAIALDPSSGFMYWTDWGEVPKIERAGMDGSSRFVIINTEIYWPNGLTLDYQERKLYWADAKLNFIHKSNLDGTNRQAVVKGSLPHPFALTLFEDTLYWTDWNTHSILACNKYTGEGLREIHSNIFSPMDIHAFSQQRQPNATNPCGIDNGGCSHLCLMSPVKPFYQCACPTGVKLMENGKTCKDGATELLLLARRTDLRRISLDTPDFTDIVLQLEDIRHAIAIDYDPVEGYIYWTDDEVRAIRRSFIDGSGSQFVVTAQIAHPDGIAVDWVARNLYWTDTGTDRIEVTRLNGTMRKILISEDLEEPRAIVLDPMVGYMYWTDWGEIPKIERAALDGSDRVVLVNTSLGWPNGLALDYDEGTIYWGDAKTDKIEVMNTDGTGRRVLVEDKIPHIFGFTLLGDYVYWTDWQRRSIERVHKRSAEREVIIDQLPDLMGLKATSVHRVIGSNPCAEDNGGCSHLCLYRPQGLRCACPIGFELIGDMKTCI

T1 sequence (P55259 29-512 limits assumed): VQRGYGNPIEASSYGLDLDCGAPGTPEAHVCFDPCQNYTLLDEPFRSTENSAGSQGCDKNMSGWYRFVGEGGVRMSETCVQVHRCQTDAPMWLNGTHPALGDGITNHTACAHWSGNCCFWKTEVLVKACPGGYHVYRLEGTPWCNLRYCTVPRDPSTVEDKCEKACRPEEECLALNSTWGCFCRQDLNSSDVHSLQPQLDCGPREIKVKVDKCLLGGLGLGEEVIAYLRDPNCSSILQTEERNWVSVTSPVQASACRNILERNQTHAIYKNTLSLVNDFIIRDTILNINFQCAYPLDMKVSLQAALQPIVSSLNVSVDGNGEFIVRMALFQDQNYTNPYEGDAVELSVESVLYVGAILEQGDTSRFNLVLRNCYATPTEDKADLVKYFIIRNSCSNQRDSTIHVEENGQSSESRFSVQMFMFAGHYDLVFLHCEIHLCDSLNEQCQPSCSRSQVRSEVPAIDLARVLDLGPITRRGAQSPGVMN

Binder	binding result [1]	binding result [2]	binding result [3]	binding result [4]	binding result [5]
B1	binds	no binding	binds	no binding	binds
B2	binds	no binding	binds	no binding	binds
